This note sets out measurements from patent publication US20020137095A1 (RIKEN, published 2002).

Data set [1] deals with T1, full-length mouse Reelin protein (mouse, UniProt Q60841 27-3461).
T1 construct: whole, on cells; Secreted protein; Forms homophilic complexes of unstated size; also called native Reelin; full-length Reelin
The experiment in a line: cell adhesion assay after allowing for about 20% background, CR-50 at 200 µg/ml.

Data set [2] addresses T1, full-length mouse Reelin protein. The experiment in a line: cell adhesion assay after allowing for about 20% background, CR-50 at 50 µg/ml.
Data set [3] shares this target. Put plainly: cell adhesion assay after allowing for about 20% background, CR-50 at 20 µg/ml.
For data set [4] the target is unchanged. Put plainly: cell adhesion assay: Reelin-presenting cells on CR-50 epitope-coated dishes (200 or 50 µg/ml). How it is done: (A) Reelin-presenting cells on CR-50 epitope-coated dish (200 μg/ml). (B) Reelin-presenting cells on control-coated dish. (C) Histograms showing cell numbers in cell adhesion assay on CR-50 epitope-coated dishes (200 or 50 μg/ml) that are normalized to the control.
The former supernatant contained full-length Reelin molecules and the latter one contained no Reelin. After nitrocellulose/methanol treatment, Petri dishes were coated overnight with each supernatant. Petri dishes coated with the CR-50 epitope were prepared by overnight incubation with recombinant CR-50 epitope proteins produced from E. coli cells. […] After incubation for 2 hours, each plate was washed with panning buffer (PBS containing 10% v/v FCS) 7 to 10 times until no floating cells remained. To examine the effect of CR-50 antibody on cell adhesion, the antibody was added to the culture medium from the beginning of incubation. Then, the cells remaining on the dishes were observed by a microscope connected to a computer-controlled camera. This experiment was repeated five times, and for each dish, five microscopic fields were scored.

Data set [5] concerns the molecule itself. Put plainly: analytical gel filtration (Superdex-200), 0.15 M NaCl, pH 7.4, 40 µM sample. How it is done: A FPLC gel filtration chromatography system (Pharmacia) was used for chromatography. This system was controlled by a computer FPLC director program (Pharmacia). The sample was loaded onto a Superdex-200 gel filtration column (separation range: 10 kDa to 600 kDa, Pharmacia), which had been pre-equilibrated with a buffer containing 20 mM sodium phosphate, pH 7.4, 0.15 M NaCl, and 5 mM DTT, and then eluted at flow rate of 0.5 ml/min. The sample concentration was adjusted to 40 μM.
(SEC sorts molecules by how far they enter the pores of the column.)

T1 sequence (Q60841 27-3461): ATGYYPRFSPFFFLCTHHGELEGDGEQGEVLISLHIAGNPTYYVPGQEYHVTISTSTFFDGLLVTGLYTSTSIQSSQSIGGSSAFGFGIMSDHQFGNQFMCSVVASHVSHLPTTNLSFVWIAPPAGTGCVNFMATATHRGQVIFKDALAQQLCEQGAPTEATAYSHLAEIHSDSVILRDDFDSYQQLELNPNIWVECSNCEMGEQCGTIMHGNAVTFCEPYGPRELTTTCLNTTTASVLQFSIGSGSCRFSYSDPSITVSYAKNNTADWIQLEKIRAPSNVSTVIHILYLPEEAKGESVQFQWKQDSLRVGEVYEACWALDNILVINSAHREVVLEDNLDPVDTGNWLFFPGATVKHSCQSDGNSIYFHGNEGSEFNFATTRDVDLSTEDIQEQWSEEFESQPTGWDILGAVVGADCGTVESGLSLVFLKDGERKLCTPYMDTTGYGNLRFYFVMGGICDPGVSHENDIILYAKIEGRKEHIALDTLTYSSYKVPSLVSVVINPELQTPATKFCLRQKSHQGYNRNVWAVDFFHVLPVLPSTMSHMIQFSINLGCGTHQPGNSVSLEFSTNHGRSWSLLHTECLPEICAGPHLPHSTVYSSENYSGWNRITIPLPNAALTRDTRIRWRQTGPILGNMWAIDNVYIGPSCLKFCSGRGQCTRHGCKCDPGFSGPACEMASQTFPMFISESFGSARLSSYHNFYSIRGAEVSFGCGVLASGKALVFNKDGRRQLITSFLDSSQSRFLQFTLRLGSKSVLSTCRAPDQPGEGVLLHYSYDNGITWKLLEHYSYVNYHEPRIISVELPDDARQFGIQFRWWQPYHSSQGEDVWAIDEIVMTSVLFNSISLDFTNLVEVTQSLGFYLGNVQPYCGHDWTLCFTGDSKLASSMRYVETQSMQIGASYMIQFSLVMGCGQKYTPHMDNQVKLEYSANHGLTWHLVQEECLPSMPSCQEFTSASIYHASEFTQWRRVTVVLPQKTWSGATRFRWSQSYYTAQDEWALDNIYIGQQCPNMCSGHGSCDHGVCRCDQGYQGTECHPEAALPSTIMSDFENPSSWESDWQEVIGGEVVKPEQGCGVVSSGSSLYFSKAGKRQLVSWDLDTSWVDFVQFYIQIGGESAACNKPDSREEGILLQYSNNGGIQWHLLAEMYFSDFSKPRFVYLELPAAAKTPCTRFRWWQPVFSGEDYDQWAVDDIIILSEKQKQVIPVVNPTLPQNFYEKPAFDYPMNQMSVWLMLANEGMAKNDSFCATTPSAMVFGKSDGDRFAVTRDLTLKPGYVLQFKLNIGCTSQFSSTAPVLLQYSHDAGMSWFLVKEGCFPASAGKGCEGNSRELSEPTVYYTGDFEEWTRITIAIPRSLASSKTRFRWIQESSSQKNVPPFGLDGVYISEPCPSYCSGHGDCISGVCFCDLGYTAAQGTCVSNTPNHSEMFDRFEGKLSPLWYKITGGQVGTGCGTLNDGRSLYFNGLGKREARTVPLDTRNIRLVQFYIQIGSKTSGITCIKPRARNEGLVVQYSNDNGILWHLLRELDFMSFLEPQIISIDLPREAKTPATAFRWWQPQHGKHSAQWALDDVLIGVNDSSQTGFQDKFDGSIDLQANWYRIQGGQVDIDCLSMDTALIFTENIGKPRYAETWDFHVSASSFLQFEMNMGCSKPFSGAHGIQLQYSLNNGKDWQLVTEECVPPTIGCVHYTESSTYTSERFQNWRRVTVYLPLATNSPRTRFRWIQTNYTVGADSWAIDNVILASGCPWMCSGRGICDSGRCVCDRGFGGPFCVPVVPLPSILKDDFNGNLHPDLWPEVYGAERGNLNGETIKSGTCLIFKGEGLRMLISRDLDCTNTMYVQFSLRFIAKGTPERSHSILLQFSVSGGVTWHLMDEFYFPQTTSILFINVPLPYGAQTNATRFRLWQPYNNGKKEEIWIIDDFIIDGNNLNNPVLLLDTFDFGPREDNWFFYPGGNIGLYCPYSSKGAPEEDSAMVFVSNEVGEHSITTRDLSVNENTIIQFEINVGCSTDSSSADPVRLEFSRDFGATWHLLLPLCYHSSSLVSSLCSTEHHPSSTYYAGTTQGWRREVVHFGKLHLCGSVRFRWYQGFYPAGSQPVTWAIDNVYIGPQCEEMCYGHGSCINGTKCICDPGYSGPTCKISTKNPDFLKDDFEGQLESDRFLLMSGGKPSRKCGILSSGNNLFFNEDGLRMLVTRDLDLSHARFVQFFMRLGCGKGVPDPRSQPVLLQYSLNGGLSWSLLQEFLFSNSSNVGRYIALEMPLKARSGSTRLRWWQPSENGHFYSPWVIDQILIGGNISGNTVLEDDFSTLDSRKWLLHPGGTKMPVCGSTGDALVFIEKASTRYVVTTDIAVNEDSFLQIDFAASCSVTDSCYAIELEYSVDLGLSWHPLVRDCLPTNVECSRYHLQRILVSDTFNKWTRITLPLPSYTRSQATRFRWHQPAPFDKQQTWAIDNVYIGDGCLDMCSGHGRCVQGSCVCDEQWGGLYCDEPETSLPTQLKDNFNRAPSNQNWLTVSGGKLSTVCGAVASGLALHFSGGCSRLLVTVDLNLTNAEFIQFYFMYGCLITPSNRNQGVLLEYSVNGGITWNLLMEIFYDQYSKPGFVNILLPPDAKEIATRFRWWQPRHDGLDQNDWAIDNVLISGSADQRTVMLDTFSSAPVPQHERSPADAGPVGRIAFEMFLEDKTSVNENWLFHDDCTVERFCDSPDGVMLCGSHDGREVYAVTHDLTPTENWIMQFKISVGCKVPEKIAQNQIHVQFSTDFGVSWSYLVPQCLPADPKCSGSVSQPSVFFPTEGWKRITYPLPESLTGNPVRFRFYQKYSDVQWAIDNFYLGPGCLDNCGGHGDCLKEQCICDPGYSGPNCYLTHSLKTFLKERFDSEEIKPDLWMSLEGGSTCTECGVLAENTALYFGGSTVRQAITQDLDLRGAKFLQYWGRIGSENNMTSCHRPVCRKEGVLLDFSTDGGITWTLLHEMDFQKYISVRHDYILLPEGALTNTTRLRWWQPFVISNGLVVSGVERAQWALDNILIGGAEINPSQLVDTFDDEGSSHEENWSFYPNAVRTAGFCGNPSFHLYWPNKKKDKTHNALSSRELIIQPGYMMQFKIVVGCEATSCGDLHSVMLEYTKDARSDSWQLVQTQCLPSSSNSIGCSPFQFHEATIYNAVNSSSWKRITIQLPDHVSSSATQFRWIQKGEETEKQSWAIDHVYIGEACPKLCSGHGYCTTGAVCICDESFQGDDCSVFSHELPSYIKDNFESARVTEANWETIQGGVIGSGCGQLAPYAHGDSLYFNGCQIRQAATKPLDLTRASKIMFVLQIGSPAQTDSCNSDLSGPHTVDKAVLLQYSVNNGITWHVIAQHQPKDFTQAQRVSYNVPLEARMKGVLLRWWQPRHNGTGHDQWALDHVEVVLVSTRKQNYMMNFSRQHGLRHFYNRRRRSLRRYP

With CR-50 antibody, the specific binding left, fraction of the control (fraction of specific binding) in data set [1] was found to be 0.1; in data set [2], 0.25; in data set [3] it was 0.33.

B1: recombinant CR-50 epitope fragment of Reelin (residues 230-346) with C-terminal His-tag, from E. coli (other, not shown: small tags and cut ends)
chain: EQCGTIMHGNAVTFCEPYGPRELTTTCLNTTTASVLQFSIGSGSCRFSYSDPSITVSYAKNNTADWIQLEKIRAPSNVSTVIHILYLPEEAKGESVQFQWKQDSLRVGEVYEACWAL
notes: Under physiological conditions it forms a homopolymer of more than 600 kDa (more than 40 molecules of about 15 kDa)
On to B1, for which the binding result in data set [4] and in data set [5] was “binds” each time.
